The source of these data is publication PMC8117670 (Science (New York, N.Y.), 2021).

Test in all cases: cryo-EM structure
In assay [1] the target is T1, Med23 (human, UniProt Q9ULK4 1-1368).
T1 sequence: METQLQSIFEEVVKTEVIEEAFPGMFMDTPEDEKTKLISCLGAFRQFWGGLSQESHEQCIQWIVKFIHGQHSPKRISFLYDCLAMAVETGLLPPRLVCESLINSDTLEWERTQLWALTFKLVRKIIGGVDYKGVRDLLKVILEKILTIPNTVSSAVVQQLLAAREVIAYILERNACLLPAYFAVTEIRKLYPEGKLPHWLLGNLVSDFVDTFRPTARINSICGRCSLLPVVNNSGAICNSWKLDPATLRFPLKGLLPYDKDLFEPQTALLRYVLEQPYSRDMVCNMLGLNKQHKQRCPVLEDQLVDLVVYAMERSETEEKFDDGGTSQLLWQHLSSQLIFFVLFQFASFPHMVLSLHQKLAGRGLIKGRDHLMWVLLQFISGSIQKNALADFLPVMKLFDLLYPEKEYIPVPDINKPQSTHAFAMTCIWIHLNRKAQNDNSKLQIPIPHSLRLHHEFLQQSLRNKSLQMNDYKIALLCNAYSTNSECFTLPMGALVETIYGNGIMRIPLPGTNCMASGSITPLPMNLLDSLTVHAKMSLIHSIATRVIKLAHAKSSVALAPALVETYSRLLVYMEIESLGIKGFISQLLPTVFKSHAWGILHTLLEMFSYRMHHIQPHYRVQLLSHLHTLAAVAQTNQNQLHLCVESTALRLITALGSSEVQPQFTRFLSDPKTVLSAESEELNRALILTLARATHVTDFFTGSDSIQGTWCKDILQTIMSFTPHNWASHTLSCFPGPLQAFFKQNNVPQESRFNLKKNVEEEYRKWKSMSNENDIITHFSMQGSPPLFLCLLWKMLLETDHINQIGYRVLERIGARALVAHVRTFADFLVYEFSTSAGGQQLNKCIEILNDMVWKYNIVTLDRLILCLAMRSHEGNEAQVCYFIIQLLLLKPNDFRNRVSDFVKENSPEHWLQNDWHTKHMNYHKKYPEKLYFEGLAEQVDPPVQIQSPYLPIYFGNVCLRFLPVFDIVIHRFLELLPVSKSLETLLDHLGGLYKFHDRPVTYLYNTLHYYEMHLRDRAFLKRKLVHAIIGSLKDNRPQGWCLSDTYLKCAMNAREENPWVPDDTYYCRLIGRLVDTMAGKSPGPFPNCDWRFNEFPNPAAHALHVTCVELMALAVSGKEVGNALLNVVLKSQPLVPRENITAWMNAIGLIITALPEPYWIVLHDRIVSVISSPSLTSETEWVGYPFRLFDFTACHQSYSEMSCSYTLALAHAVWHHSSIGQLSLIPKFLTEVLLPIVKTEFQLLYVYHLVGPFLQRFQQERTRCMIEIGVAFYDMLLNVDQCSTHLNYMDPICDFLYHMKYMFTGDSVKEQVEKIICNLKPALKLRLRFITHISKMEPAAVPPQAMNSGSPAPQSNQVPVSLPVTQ

Assay [2] addresses Med1 (human, UniProt Q15648 1-1581).
For assay [3], the target named is Med14 (human, UniProt O60244 1-1454).
Chain of Med14 (O60244 whole entry): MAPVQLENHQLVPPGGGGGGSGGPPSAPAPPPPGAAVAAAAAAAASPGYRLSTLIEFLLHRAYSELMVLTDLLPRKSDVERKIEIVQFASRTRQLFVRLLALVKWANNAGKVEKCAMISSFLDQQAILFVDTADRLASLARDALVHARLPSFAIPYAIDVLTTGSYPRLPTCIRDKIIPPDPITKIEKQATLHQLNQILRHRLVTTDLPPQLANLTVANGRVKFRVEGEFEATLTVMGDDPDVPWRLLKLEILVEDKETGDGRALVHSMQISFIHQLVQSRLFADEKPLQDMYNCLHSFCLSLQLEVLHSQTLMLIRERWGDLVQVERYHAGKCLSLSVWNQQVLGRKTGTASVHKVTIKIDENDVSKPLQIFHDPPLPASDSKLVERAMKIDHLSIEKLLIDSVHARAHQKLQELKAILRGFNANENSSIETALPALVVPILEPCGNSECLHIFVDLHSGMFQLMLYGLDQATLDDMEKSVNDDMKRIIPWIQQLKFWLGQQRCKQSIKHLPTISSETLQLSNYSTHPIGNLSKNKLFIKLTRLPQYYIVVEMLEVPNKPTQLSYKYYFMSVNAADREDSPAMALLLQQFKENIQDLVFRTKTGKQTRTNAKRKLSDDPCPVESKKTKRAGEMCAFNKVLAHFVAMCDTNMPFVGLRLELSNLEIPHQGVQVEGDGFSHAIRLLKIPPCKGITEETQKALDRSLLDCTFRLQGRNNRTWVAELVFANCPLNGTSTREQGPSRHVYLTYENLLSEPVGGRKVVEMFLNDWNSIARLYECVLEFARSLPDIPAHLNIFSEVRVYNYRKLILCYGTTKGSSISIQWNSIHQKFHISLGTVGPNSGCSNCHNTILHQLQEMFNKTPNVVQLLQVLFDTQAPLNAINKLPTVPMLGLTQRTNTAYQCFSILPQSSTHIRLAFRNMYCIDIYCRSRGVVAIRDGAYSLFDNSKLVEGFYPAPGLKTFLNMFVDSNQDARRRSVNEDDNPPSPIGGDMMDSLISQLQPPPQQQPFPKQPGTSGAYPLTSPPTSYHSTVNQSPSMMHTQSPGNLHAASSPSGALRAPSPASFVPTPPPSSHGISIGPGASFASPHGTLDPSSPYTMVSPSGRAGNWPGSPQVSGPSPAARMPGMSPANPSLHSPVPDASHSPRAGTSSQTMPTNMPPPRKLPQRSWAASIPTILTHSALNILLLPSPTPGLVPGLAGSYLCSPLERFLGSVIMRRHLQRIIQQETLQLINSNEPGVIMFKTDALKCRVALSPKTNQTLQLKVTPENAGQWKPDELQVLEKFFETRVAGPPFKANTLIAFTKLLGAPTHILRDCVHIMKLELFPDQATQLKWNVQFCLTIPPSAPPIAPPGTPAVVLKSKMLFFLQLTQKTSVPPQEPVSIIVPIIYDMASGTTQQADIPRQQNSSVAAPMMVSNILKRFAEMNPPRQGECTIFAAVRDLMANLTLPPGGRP
Assay [4] concerns the target RPB1, the largest subunit of RNA polymerase II (human, UniProt P24928 1-1970).

Chain of Med1 (Q15648 whole entry): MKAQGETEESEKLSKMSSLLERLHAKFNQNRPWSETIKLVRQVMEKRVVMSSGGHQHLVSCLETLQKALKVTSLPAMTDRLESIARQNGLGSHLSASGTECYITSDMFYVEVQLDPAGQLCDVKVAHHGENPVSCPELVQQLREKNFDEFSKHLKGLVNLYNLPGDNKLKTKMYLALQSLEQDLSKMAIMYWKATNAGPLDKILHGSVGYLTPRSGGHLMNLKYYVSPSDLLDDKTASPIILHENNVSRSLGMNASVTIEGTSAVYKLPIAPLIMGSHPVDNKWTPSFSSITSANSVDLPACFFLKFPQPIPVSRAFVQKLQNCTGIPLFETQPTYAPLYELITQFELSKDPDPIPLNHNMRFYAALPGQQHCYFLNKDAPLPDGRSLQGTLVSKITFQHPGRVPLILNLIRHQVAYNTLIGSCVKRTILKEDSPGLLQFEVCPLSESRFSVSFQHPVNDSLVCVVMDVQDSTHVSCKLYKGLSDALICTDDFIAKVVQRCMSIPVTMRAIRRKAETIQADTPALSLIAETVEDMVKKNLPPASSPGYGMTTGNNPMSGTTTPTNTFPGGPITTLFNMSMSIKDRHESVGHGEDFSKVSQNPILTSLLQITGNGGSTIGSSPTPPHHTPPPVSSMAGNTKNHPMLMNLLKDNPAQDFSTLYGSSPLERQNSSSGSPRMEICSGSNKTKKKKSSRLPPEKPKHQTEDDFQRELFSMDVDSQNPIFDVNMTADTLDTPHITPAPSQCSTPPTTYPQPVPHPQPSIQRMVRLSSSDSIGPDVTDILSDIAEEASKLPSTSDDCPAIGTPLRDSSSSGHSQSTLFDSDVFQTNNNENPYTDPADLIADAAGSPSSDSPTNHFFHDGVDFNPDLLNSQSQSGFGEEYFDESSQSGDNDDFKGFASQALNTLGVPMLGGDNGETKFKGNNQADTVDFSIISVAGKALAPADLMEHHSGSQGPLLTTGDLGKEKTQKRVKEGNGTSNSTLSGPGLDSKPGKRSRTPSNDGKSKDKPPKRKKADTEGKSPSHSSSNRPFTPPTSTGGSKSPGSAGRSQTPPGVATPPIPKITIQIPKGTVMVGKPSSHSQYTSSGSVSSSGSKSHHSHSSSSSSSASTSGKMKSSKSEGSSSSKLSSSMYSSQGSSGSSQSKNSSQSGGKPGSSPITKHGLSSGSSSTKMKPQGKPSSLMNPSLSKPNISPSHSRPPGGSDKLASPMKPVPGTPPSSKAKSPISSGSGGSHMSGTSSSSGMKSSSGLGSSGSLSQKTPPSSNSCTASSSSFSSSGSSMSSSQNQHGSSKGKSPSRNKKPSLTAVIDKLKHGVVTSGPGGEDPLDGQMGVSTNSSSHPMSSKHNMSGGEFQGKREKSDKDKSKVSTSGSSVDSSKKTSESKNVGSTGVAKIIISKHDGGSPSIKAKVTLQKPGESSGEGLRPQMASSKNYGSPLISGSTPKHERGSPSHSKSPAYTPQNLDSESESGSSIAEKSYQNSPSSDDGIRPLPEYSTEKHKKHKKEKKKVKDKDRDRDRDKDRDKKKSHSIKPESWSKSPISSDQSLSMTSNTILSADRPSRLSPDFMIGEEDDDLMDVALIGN

B1: Med25 (natural protein, human)
chain: MVPGSEGPARAGSVVADVVFVIEGTANLGPYFEGLRKHYLLPAIEYFNGGPPAETDFGGDYGGTQYSLVVFNTVDCAPESYVQCHAPTSSAYEFVTWLDGIKFMGGGGESCSLIAEGLSTALQLFDDFKKMREQIGQTHRVCLLICNSPPYLLPAVESTTYSGCTTENLVQQIGERGIHFSIVSPRKLPALRLLFEKAAPPALLEPLQPPTDVSQDPRHMVLVRGLVLPVGGGSAPGPLQSKQPVPLPPAAPSGATLSAAPQQPLPPVPPQYQVPGNLSAAQVAAQNAVEAAKNQKAGLGPRFSPITPLQQAAPGVGPPFSQAPAPQLPPGPPGAPKPPPASQPSLVSTVAPGSGLAPTAQPGAPSMAGTVAPGGVSGPSPAQLGAPALGGQQSVSNKLLAWSGVLEWQEKPKPASVDANTKLTRSLPCQVYVNHGENLKTEQWPQKLIMQLIPQQLLTTLGPLFRNSRMVQFHFTNKDLESLKGLYRIMGNGFAGCVHFPHTAPCEVRVLMLLYSSKKKIFMGLIPYDQSGFVNGIRQVITNHKQVQQQKLEQQQRGMGGQQAPPGLGPILEDQARPSQNLLQLRPPQPQPQGTVGASGATGQPQPQGTAQPPPGAPQGPPGAASGPPPPGPILRPQNPGANPQLRSLLLNPPPPQTGVPPPQASLHHLQPPGAPALLPPPHQGLGQPQLGPPLLHPPPAQSWPAQLPPRAPLPGQMLLSGGPRGPVPQPGLQPSVMEDDILMDLI
For B1, the binding result in assay [1] is “binds”.

B2: Med4 (natural protein, human)
chain: MAASSSGEKEKERLGGGLGVAGGNSTRERLLSALEDLEVLSRELIEMLAISRNQKLLQAGEENQVLELLIHRDGEFQELMKLALNQGKIHHEMQVLEKEVEKRDSDIQQLQKQLKEAEQILATAVYQAKEKLKSIEKARKGAISSEEIIKYAHRISASNAVCAPLTWVPGDPRRPYPTDLEMRSGLLGQMNNPSTNGVNGHLPGDALAAGRLPDVLAPQYPWQSNDMSMNMLPPNHSSDFLLEPPGHNKENEDDVEIMSTDSSSSSSESD
Consider B2, for which, in assay [2], the binding result is “binds”.

B3: Med17 (natural protein, human)
chain: MSGVRAVRISIESACEKQVHEVGLDGTETYLPPLSMSQNLARLAQRIDFSQGSGSEEEEAAGTEGDAQEWPGAGSSADQDDEEGVVKFQPSLWPWDSVRNNLRSALTEMCVLYDVLSIVRDKKFMTLDPVSQDALPPKQNPQTLQLISKKKSLAGAAQILLKGAERLTKSVTENQENKLQRDFNSELLRLRQHWKLRKVGDKILGDLSYRSAGSLFPHHGTFEVIKNTDLDLDKKIPEDYCPLDVQIPSDLEGSAYIKVSIQKQAPDIGDLGTVNLFKRPLPKSKPGSPHWQTKLEAAQNVLLCKEIFAQLSREAVQIKSQVPHIVVKNQIISQPFPSLQLSISLCHSSNDKKSQKFATEKQCPEDHLYVLEHNLHLLIREFHKQTLSSIMMPHPASAPFGHKRMRLSGPQAFDKNEINSLQSSEGLLEKIIKQAKHIFLRSRAAATIDSLASRIEDPQIQAHWSNINDVYESSVKVLITSQGYEQICKSIQLQLNIGVEQIRVVHRDGRVITLSYQEQELQDFLLSQMSQHQVHAVQQLAKVMGWQVLSFSNHVGLGPIESIGNASAITVASPSGDYAISVRNGPESGSKIMVQFPRNQCKDLPKSDVLQDNKWSHLRGPFKEVQWNKMEGRNFVYKMELLMSALSPCLL
As to B3, the binding result in assay [3] is reported as “binds”.

B4: Med24 (natural protein, human)
chain: MKVVNLKQAILQAWKERWSDYQWAINMKKFFPKGATWDILNLADALLEQAMIGPSPNPLILSYLKYAISSQMVSYSSVLTAISKFDDFSRDLCVQALLDIMDMFCDRLSCHGKAEECIGLCRALLSALHWLLRCTAASAERLREGLEAGTPAAGEKQLAMCLQRLEKTLSSTKNRALLHIAKLEEASSWTAIEHSLLKLGEILANLSNPQLRSQAEQCGTLIRSIPTMLSVHAEQMHKTGFPTVHAVILLEGTMNLTGETQSLVEQLTMVKRMQHIPTPLFVLEIWKACFVGLIESPEGTEELKWTAFTFLKIPQVLVKLKKYSHGDKDFTEDVNCAFEFLLKLTPLLDKADQRCNCDCTNFLLQECGKQGLLSEASVNNLMAKRKADREHAPQQKSGENANIQPNIQLILRAEPTVTNILKTMDADHSKSPEGLLGVLGHMLSGKSLDLLLAAAAATGKLKSFARKFINLNEFTTYGSEESTKPASVRALLFDISFLMLCHVAQTYGSEVILSESRTGAEVPFFETWMQTCMPEEGKILNPDHPCFRPDSTKVESLVALLNNSSEMKLVQMKWHEACLSISAAILEILNAWENGVLAFESIQKITDNIKGKVCSLAVCAVAWLVAHVRMLGLDEREKSLQMIRQLAGPLFSENTLQFYNERVVIMNSILERMCADVLQQTATQIKFPSTGVDTMPYWNLLPPKRPIKEVLTDIFAKVLEKGWVDSRSIHIFDTLLHMGGVYWFCNNLIKELLKETRKEHTLRAVELLYSIFCLDMQQVTLVLLGHILPGLLTDSSKWHSLMDPPGTALAKLAVWCALSSYSSHKGQASTRQKKRHREDIEDYISLFPLDDVQPSKLMRLLSSNEDDANILSSPTDRSMSSSLSASQLHTVNMRDPLNRVLANLFLLISSILGSRTAGPHTQFVQWFMEECVDCLEQGGRGSVLQFMPFTTVSELVKVSAMSSPKVVLAITDLSLPLGRQVAAKAIAAL
As for B4, the binding result in assay [2] is reported as “binds”.

B5: Med9 (natural protein, human)
chain: MASAGVAAGRQAEDVLPPTSDQPLPDTKPLPPPQPPPVPAPQPQQSPAPRPQSPARAREEENYSFLPLVHNIIKCMDKDSPEVHQDLNALKSKFQEMRKLISTMPGIHLSPEQQQQQLQSLREQVRTKNELLQKYKSLCMFEIPKE
For the molecule B5, in assay [2], the binding result is “binds”.

B6: Med31 (natural protein)
chain: MAAAVAMETDDAGNRLRFQLELEFVQCLANPNYLNFLAQRGYFKDKAFVNYLKYLLYWKDPEYAKYLKYPQCLHMLELLQYEHFRKELVNAQCAKFIDEQQILHWQHYSRKRMRLQQALAEQQQQNNTSGK
Regarding B6, the binding result in assay [4] is on record as “binds”.
